This is an account of results in patent US20220153852A1 (IBIO, published 2022).

Assay [1] addresses T1, CD25 on CD25-expressing human cells (SUDHL-1, SR786, regulatory T cells) (human, UniProt P01589 22-272).
T1 sequence (looked up): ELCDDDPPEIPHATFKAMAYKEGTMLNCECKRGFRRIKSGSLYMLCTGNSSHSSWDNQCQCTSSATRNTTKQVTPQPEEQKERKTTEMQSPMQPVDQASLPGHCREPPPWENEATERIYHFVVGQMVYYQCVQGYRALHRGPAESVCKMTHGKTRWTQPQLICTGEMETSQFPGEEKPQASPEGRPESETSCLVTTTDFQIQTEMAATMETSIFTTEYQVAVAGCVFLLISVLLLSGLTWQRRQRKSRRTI
Kind of assay: cell-based or functional assay.

Assay [2] concerns the target T2, recombinant cynomolgus monkey (cyno) CD25 (cynomolgus monkey, UniProt H6WS54 22-213).
T2 sequence: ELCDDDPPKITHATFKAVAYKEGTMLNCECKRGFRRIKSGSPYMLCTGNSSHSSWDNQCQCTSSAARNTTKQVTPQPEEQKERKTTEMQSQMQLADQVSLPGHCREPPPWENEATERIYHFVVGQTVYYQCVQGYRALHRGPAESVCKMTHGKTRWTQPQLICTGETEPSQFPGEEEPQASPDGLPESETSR
Kind of assay: ELISA on coated cyno CD25, OD450, curve fit. As for the experimental part:
(§1) To test for binding to recombinant cynomolgus monkey (cyno) CD25, microtiter plates were coated with 80 ul of 1 ug/ml Cyno CD25 in 50 mM sodium carbonate pH 9.6) at 4° C. overnight. The next day, remove the protein from the wells and block with 200 ul PBS/0.1% BSA/0.05% tween20. The plate was incubated for 1 hour at room temperature. The antibodies starting at 25 nM and 3 fold serially were diluted in PBT buffer and added to the plate for incubation at RT for 1 hour. The plate was then washed and then 1:2500 dilution of HRP conjugate anti-Fab antibody was added. The plate was washed 5-10 times with PBS/tween20 to remove non-specific binders. TMB perxidase substrate and peroxidase solution were added and incubated for the time needed to develop with 80 uL of ELISA stop solution added at the end. OD measurements were then taken at […] using a plate reader (SpectraMax iD3 Plate Reader, Molecular Devices).
(§2) The ratio is indicative of a preference in binding to either cyno or human CD25.
On the technique in general: In an ELISA, binding on a coated surface is turned into a signal by an enzyme label.

Assay [3] deals with T3, human CD25 (ELISA antigen) (human, UniProt P01589 22-213, limits assumed).
T3 construct: The ELISA protocol is described only for cyno CD25; the human antigen's construct is not described
T3 sequence (looked up): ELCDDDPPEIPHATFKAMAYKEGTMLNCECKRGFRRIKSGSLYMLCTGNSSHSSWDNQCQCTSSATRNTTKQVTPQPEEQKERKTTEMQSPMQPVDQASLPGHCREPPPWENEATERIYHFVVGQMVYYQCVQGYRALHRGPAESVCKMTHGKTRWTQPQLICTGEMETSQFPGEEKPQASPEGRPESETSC
Kind of assay: ELISA on human CD25, OD450, curve fit.

The target of assay [4] is T2, recombinant cynomolgus monkey (cyno) …. Kind of assay: ratio of the ELISA IC50 on cyno CD25 to that on human CD25. As to the method:
as §1, §2

B1: hD11-H3-L2 (hD11-H3h-L2) (antibody, V domains shown)
VH: QVQLVQSGAEVKKPGASLKISCKGSGYTFTDYAMHWVRQAPGQGLEWIGVISTYSGDAIYAQKFQGRATMTVDTSTSTAYLELSSLRSEDTAVYYCARGVTFDYWGQGTTVTVSS
VL: DIQMTQSPSSLSASVGDRVTITCRASQDISNYLEWYQQKPGKAPKLLVYNAKTLAEGVPSRFSGSGSGTDFTLTISSLQPEDFGTYYCQHHYDTPYTFGQGTKLEIK
With B1, the “Treg ADCC EC50” value in assay [1] is 0.0048 µg/mL.

B2: hD11-H2-L1 (antibody, V domains shown)
VH: QVQLVQSGAEVKKPGASVKVSCKGSGYTFTDYAMHWVRQAPGQGLEWMGVISTYSGDAIYAQKFQGRVTMTVDTSTSTAYMELSSLRSEDTAVYYCARGVTFDYWGQGTTVTVSS
VL: DIQMTQSPSSLSASVGDRVTITCRASQDISNYLEWYQQKPGKAPKLLIYNAKTLAEGVPSRFSGSGSGTDFTLTISSLQPEDFATYYCQHHYDTPYTFGQGTKLEIK
Take B2: the “Treg ADCC EC50” value in assay [1] is 0.0178 µg/mL.

B3: hD11-H2-L2 (antibody, V domains shown)
VH: QVQLVQSGAEVKKPGASVKVSCKGSGYTFTDYAMHWVRQAPGQGLEWMGVISTYSGDAIYAQKFQGRVTMTVDTSTSTAYMELSSLRSEDTAVYYCARGVTFDYWGQGTTVTVSS
VL: DIQMTQSPSSLSASVGDRVTITCRASQDISNYLEWYQQKPGKAPKLLVYNAKTLAEGVPSRFSGSGSGTDFTLTISSLQPEDFGTYYCQHHYDTPYTFGQGTKLEIK
For the molecule B3, the “Treg ADCC EC50” value in assay [1] was found to be 0.0133 µg/mL.

B4: hD11-H3-L1 (hD11-H3h-L1) (antibody, V domains shown)
VH: QVQLVQSGAEVKKPGASLKISCKGSGYTFTDYAMHWVRQAPGQGLEWIGVISTYSGDAIYAQKFQGRATMTVDTSTSTAYLELSSLRSEDTAVYYCARGVTFDYWGQGTTVTVSS
VL: DIQMTQSPSSLSASVGDRVTITCRASQDISNYLEWYQQKPGKAPKLLIYNAKTLAEGVPSRFSGSGSGTDFTLTISSLQPEDFATYYCQHHYDTPYTFGQGTKLEIK
In the case of B4, in assay [1], the “Treg ADCC EC50” value was 0.0683 µg/mL.

B5: hD11-H3b-L1 (antibody, V domains shown)
VH: QVQLVQSGAEVKKPGASLKISCKGSGYTFTDYAMHWVRQAPGQGLEWIGVISTYSGDAIYAQKFQGRATMTVDKSTSTAYLELSSLRSEDTAVYYCARGVTFDYWGQGTTVTVSS
VL: DIQMTQSPSSLSASVGDRVTITCRASQDISNYLEWYQQKPGKAPKLLIYNAKTLAEGVPSRFSGSGSGTDFTLTISSLQPEDFATYYCQHHYDTPYTFGQGTKLEIK
Consider B5, for which, in assay [1], the “Treg ADCC EC50” value was 0.0317 µg/mL.

B6: hD11-H3b-L2 (antibody, V domains shown)
VH: QVQLVQSGAEVKKPGASLKISCKGSGYTFTDYAMHWVRQAPGQGLEWIGVISTYSGDAIYAQKFQGRATMTVDKSTSTAYLELSSLRSEDTAVYYCARGVTFDYWGQGTTVTVSS
VL: DIQMTQSPSSLSASVGDRVTITCRASQDISNYLEWYQQKPGKAPKLLVYNAKTLAEGVPSRFSGSGSGTDFTLTISSLQPEDFGTYYCQHHYDTPYTFGQGTKLEIK
In the case of B6, the “Treg ADCC EC50” value in assay [1] came to 0.0077 µg/mL.

B7: hD11-H2b-L2 (antibody, V domains shown)
VH: QVQLVQSGAEVKKPGASVKVSCKGSGYTFTDYAMHWVRQAPGQGLEWMGVISTYSGDAIYAQKFQGRVTMTVDKSTSTAYMELSSLRSEDTAVYYCARGVTFDYWGQGTTVTVSS
VL: DIQMTQSPSSLSASVGDRVTITCRASQDISNYLEWYQQKPGKAPKLLVYNAKTLAEGVPSRFSGSGSGTDFTLTISSLQPEDFGTYYCQHHYDTPYTFGQGTKLEIK
In the case of B7, the “Treg ADCC EC50” value in assay [1] turned out to be 0.0145 µg/mL.

B8: hD11-H1-L1 (antibody, V domains shown)
VH: QVQLVQSGAEVKKPGASVKVSCKASGYTFTDYAMHWVRQAPGQGLEWMGVISTYSGDAIYAQKFQGRVTMTRDTSTSTVYMELSSLRSEDTAVYYCARGVTFDYWGQGTTVTVSS
VL: DIQMTQSPSSLSASVGDRVTITCRASQDISNYLEWYQQKPGKAPKLLIYNAKTLAEGVPSRFSGSGSGTDFTLTISSLQPEDFATYYCQHHYDTPYTFGQGTKLEIK
Take B8: the “Treg ADCC EC50” value in assay [1] is 0.0206 µg/mL.

B9: hD11-H2b-L1 (antibody, V domains shown)
VH: QVQLVQSGAEVKKPGASVKVSCKGSGYTFTDYAMHWVRQAPGQGLEWMGVISTYSGDAIYAQKFQGRVTMTVDKSTSTAYMELSSLRSEDTAVYYCARGVTFDYWGQGTTVTVSS
VL: DIQMTQSPSSLSASVGDRVTITCRASQDISNYLEWYQQKPGKAPKLLIYNAKTLAEGVPSRFSGSGSGTDFTLTISSLQPEDFATYYCQHHYDTPYTFGQGTKLEIK
Turning to B9, in assay [1], the “Treg ADCC EC50” value was 0.0089 µg/mL.

B10: hD11-H1-L2 (antibody, V domains shown)
VH: QVQLVQSGAEVKKPGASVKVSCKASGYTFTDYAMHWVRQAPGQGLEWMGVISTYSGDAIYAQKFQGRVTMTRDTSTSTVYMELSSLRSEDTAVYYCARGVTFDYWGQGTTVTVSS
VL: DIQMTQSPSSLSASVGDRVTITCRASQDISNYLEWYQQKPGKAPKLLVYNAKTLAEGVPSRFSGSGSGTDFTLTISSLQPEDFGTYYCQHHYDTPYTFGQGTKLEIK
notes: Humanized variant of D11 (parental clone carries human IgG1)
With B10, the results for the Top in assay [2] and in assay [3] were 3.04 and 3.1, respectively. The Cyno/Human in assay [4] came out at 42.4. For the same molecule, the “Treg ADCC EC50” value in assay [1] stood at 0.0467 µg/mL.

B11: D11 (original or parental) (antibody, V domains shown)
VH: QIQLQQPGAELVRPGVSLKISCKGSGYTFTDYAMHWVRQSHAKSLEWIGVISTYSGDAIYNQKFKGKATMTVDKSSSTAYLELARLTSDDSAIYYCARGVTFDYWGQGTTVTVSS
VL: DIQMTQTTSSLSASLGDRVTITCRASQDISNYLEWYQQKQGKSPQLLVYNAKTLAEGVPSRFSGSGSGTQFSLKINSLQPEDFGSYYCQHHYDTPYTFGGGTKLEIK
notes: also called parental D11; original D11
Regarding B11, the Top in assay [2] was determined as 3.01; in assay [3], 3.12. In assay [4], the Cyno/Human was 1.3. For the same molecule, in assay [1], the “Treg ADCC EC50” value came out at 0.0135 µg/mL.

B12: 7G7B6 (antibody, V domains shown)
VH: EVQLVESGGDLVQPRGSLKLSCAASGFTFSSYGMSWVRQTPDKRLELVATINGYGDTTYYPDSVKGRFTISRDNAKNTLYLQMSSLKSEDTAMYFCARDRDYGNSYYYALDYWGQGTSVTVSS
VL: QIVLSQSPAILSASPGERVTMTCRASSSVSFMHWLQQKPGSSPKPWIYATSNLASGVSARFSGSGSGTSYSLTITRVEAEDAATYYCQQWSSNPPAFGGGTKLEIK
In the case of B12, the results for the Top in assay [2] and in assay [3] were 2.96 and 3.12, respectively. Moreover, the Cyno/Human in assay [4] is 1.8. In addition, the “Treg ADCC EC50” value in assay [1] was 0.0194 µg/mL.
